This is an account of results in patent US5705143A, “Biological targeting agents” (Amersham International PLC, priority 1994, dated 1998).

“Also recorded” adds a separate entry of the source. Bridge positions count the residues as written; N and C are the ends. Square brackets hold non-standard residues; d marks the D form. Peptide text beside a SMILES is read from it. * marks the point of attachment. Phe(ol) = N[C@H](CO)Cc1ccccc1; NHCH(CH2OH)2 = OCC(CO)N*

For one series, the system named is growth hormone. As to conditions: relative to somatostatin = 100%; cited from earlier work.
Another series concerns receptor. As to conditions: Babich et al; in words; cited from earlier work.
The conditions of series [1]: in words; cited from earlier work.
The next series relates to somatostatin receptors. Description: Biodistribution in rats: uptake/retention in adrenals and pancreas (somatostatin receptor-enriched tissues). The format is in vivo, Male Wistar rats. As to conditions: rat, i.v.; for Adrenal % Injected dose / Adrenal Relative concentration / Pancreas % Injected dose / Pancreas Relative concentration: carrier free (CF). The protocol:
In the present invention the peptides studied were radiolabelled with either ^123 I or ^99m Tc and their biodistributions studied in rats with organs of particular interest being the adrenals and pancreas. This is because somatostatin receptors have been shown in vitro to be enriched in a number of tissues including adrenals^(11,12), pancreas^(13,14), pituitary^(11,14) and brain^(15). […] Brain somatostatin receptors are not visualised when the compound is administered in vivo. In this study measurement of pituitary uptake was not sufficiently sensitive to distinguish specific and non-specific effects.
Carrier Effect on ^123 I--Compounds 1 and 6
For ^123 I--Compounds 1 and 6 the effect of carrier peptide on the biodistribution of the carrier-free ^123 I peptide was assessed by preparing 2 ml of a phosphate buffered solution of HPLC-purified carrier-free iodinated peptide as described above but then subdispensing 1 ml of this solution into a second vial containing carrier peptide.
A similar `carrier-effect` is anticipated for technetium labelled peptides, therefore the only valid comparison of biodistribution data for ^99m Tc and ^123 I labelled peptides is when both are carrier-added (CA).
(§1) Male Wistar rats were injected intravenously, under light anaesthesia with the test agent. At 2 minutes, 1 hour and 4 hours post-injection animals were sacrificed by cervical dislocation and various organs and tissue samples were removed for assay of radioactive content. The percentage injected dose in all dissected organs was calculated. In addition the % dose/gram tissue and the relative concentration of activity was calculated for selected organs. Relative concentration is the proportion of total activity in the organ divided by the proportion of bodyweight comprised by the organ. Thus, if a compound is uniformly disseminated throughout the body according to tissue weight then a given organ will have a relative concentration=1. A relative concentration>1 implies sequestration and/or retention of the compound and is a useful index where the absolute uptake (% injected dose per organ) is low.
(§2) Organs in which the test agent were looked for included the adrenals and the pancreas, where somatostatin receptors are known to be enriched (vide supra).

Series [2] can be described thus: Biodistribution in rats: blood, kidney/bladder/urine, liver, gut, thyroid. The format is in vivo, Male Wistar rats. As to conditions: rat, i.v., carrier free (CF). Here is the method:
as §1, §2

The next series deals with carboxypeptidases. As to conditions: in words; cited from earlier work.
Series [3] in a line: Metabolic stability in rat kidney homogenate. As to conditions: 37° C., approx. 1 and 3 hours, HPLC; FIG. 1; in words. It is filed as in vitro ADME. The protocol: Rat brain and kidney homogenates were produced by homogenising brain (1.71 g) and kidneys (2.41 g) in 10 vols phosphate buffered saline and centrifuging at 2000 rpm for 5 minutes.
Compound 4 (50 μg) was radiolabelled by stannous reduction of ^99m TcO4^- (0.2 GBq) at pH 9.0.
^99m Tc-Compound 4 solution (200 μl) was mixed with phosphate buffered saline (800 μl, control) rat kidney homogenate (800 μl) and rat brain homogenate (800 μl) and incubated at 37° C. HPLC analyses using the system described in Example 13 for ^99m Tc labelled peptides were performed on each sample at approx. 1 and 3 hours post-mixing.

As to `C[C@H](O)[C@@H](NC(=O)[C@@H]1CSSC[C@H](NC(=O)[C@H](N)Cc2ccccc2)C(=O)N[C@@H](Cc2ccccc2)C(=O)N[C@H](Cc2c[nH]c3ccccc23)C(=O)N[C@@H](CCCCN)C(=O)N[C@@H]([C@@H](C)O)C(=O)N1)C(N)=O` [D-Thr(NH2)], the “Relative potency (%) of growth hormone inhibition in vivo” value with growth hormone is given as 1160%.

Regarding `C[C@H](O)[C@H](CO)NC(=O)[C@@H]1CSSC[C@H](NC(=O)[C@H](N)Cc2ccccc2)C(=O)N[C@@H](Cc2ccccc2)C(=O)N[C@H](Cc2c[nH]c3ccccc23)C(=O)N[C@@H](CCCCN)C(=O)N[C@@H]([C@@H](C)O)C(=O)N1` [D-Thr(ol)], the “Relative potency (%) of growth hormone inhibition in vivo” value in the series with growth hormone is reported as 1100%.

`CSCC[C@H](NC=O)C(=O)N[C@@H](CC(C)C)C(=O)N[C@@H](Cc1ccccc1)C(=O)NCCCCCCNC(=O)c1ccc(NN)nc1` [HP3, fMLFNH(CH2)6 NH--HYNIC]: the “in vitro receptor binding affinity” value in the series on receptor is “marginally better in vitro receptor binding affinity than HP2”.

As for `C[C@@H](O)[C@@H]1NC(=O)[C@H](CCCCN)NC(=O)[C@@H](Cc2c[nH]c3ccccc23)NC(=O)[C@H](Cc2ccccc2)NC(=O)[C@@H](NC(=O)[C@H](N)Cc2ccccc2)CSSC[C@@H](C(=O)N[C@H](CO)[C@@H](C)O)NC1=O` [Octreotide], the biological half-life result in series [1] is “much longer biological half-life than natural somatostatin”.

`C[C@@H](O)[C@@H]1NC(=O)[C@H](CCCCN)NC(=O)[C@@H](Cc2c[nH]c3ccccc23)NC(=O)[C@H](Cc2ccccc2)NC(=O)[C@@H](NC(=O)[C@H](N)Cc2ccccc2)CSSC[C@@H](C(=O)N[C@H](CO)Cc2ccccc2)NC1=O` [Phe(ol)] (H-[dF]CF[dW]KTC[Phe(ol)]; disulfide 2-7): in the series on growth hormone, the “Relative potency (%) of growth hormone inhibition in vivo” value is recorded as 650%.

Turning to `C[C@@H](O)[C@@H]1NC(=O)[C@H](CCCCN)NC(=O)[C@@H](Cc2c[nH]c3ccccc23)NC(=O)[C@H](Cc2ccccc2)NC(=O)[C@@H](NC(=O)[C@H](N)Cc2ccccc2)CSSC[C@@H](C(=O)NC(CO)CO)NC1=O` [Ser(ol)] (H-[dF]CF[dW]KTC-{NHCH(CH2OH)2}; disulfide 2-7), the “Relative potency (%) of growth hormone inhibition in vivo” value with growth hormone is on record as 2800%.

In the case of `C[C@@H](O)[C@@H]1NC(=O)[C@H](CCCCN)NC(=O)[C@@H](Cc2c[nH]c3ccccc23)NC(=O)[C@H](Cc2ccccc2)NC(=O)[C@@H](NC(=O)[C@H](N)Cc2ccccc2)CSSC[C@@H](C(=O)N[C@H](CO)[C@@H](C)O)NC1=O` [Thr(ol)], the “Relative potency (%) of growth hormone inhibition in vivo” value with growth hormone is listed as 7000%.

With I-SS14: 123I labelled Somatostatin-14, the “somatostatin (SS) receptor binding in adrenals and pancreas” value in the series on somatostatin receptors (2 min, 1 and 4 hours p.i., in words, listed as 123 I-SS14) was “can be detected in the adrenal glands and pancreatic tissue; also recorded: marked SS-like binding of ^123 I-SS14 at 2 minutes post-injection (p.i.), but this activity was not retained at 1 and 4 hours p.i”. In the series with somatostatin receptors (2 min pi), the “Adrenal % Injected dose” value is 0.19 % Injected dose, the “Adrenal Relative concentration” value was 7.6, the “Pancreas % Injected dose” value amounted to 2.3 % Injected dose and the “Pancreas Relative concentration” value is 4.5. For the same compound, in the series on somatostatin receptors (1 hr pi), the “Adrenal % Injected dose” value came out at 0.01 % Injected dose, the “Adrenal Relative concentration” value came to 0.4, the “Pancreas % Injected dose” value worked out at 0.3 % Injected dose and the “Pancreas Relative concentration” value is 0.6. Also, in the series on somatostatin receptors (4 hr pi), the “Adrenal % Injected dose” value turned out to be 0.01 % Injected dose, the “Adrenal Relative concentration” value turned out to be 0.3, the “Pancreas % Injected dose” value was found to be 0.2 % Injected dose and the “Pancreas Relative concentration” value is 0.4. For the same compound, in series [2] (2 min pi), the “Blood % Injected dose” value is given as 16.2 % Injected dose; the “Gut % Injected dose” value turned out to be 9.9 % Injected dose; the “Kidney, Bladder & Urine % Injected dose” value worked out at 3.4 % Injected dose; the “Liver % Injected dose” value came out at 7.2 % Injected dose. The “Thyroid % Injected dose” value in series [2] (2 min pi) is 0.11 % Injected dose. Besides, in series [2] (1 hr pi), the “Blood % Injected dose” value was found to be 5.5 % Injected dose; the “Gut % Injected dose” value is 19.9 % Injected dose; the “Kidney, Bladder & Urine % Injected dose” value was found to be 9.9 % Injected dose; the “Liver % Injected dose” value was found to be 2.2 % Injected dose. Also, the “Thyroid % Injected dose” value in series [2] (1 hr pi) is given as 1.10 % Injected dose. For the same compound, in series [2] (4 hr pi), the “Blood % Injected dose” value was 6.1 % Injected dose; the “Gut % Injected dose” value is given as 12.1 % Injected dose; the “Kidney, Bladder & Urine % Injected dose” value worked out at 17.9 % Injected dose; the “Liver % Injected dose” value stood at 2.4 % Injected dose. For the same compound, the “Thyroid % Injected dose” value in series [2] (4 hr pi) amounted to 2.00 % Injected dose.

Take somatostatin: the “susceptibility to metabolism by carboxypeptidases” value in the series on carboxypeptidases is “particularly susceptible to metabolism by carboxypeptidases”. Further, the “metabolic stability in rat kidney homogenate” value in series [3] was “rapidly metabolised”.
